Experiment: yeast display, Sf9 membrane polyspecificity reagent, FACS + sequencing; frameworks hold sequencing errors
In short: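 In a synthetic yeast display library (Saccharomyces cerevisiae BJ5465), nanobody expression was induced with galactose for 36–48 hours. FACS gates were set low and high (top ~1%) using anti-HA fluorescence for expression and streptavidin fluorescence for binding of the Sf9 membrane reagent. Each polyreactivity label is drawn from the gate of origin.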
In the case of “QVQLVDSGGGLVQGGGSLRLSCADSGYIFGRNAMGWYRQATGKEREFVAALSSSGSSTYYADSVKGRFTISRDNEKNTDYLQLNSLKPEDTAVDYCNAVRYYLAVPYDSWGQGTQVTVSS”, the “polyreactivity (PSR sort gate)” value is reported as “high polyreactivity”.
With “QVQLVESGGGLVQAGGSLRLSCAASGYTFRTNVMGWYRQAPGKERELVATINWRGGSTYYADSVKGRFTISRDNAKNTVYLQMNSLKPEDTAVYYCAKTYRYYRTMDYWGQGTQVTVSS” the “polyreactivity (PSR sort gate)” value was “low polyreactivity”.
For “QVQLVESGGGLVQAGGSLRLSCAASGRTFDVYAMGWYRQAPGKERELVAAISSSGGSTYYADSVKGRFTISRDNAKNTVYLQMNSLKPEDTAVYYCAVYYYSVYQYQAMDYWGQGTQVTVSS”, the “polyreactivity (PSR sort gate)” value was “low polyreactivity”.
With “QVQLVESGVGLVQAGGSLRLICAASGSTFGVYAMGWYRQAPGKERELVARITSGGSTYYADSVKGRFTISRDNAKNTVYLQMNSLKPEDTAVYYCAAVYRRTRSWKFDYWGQGTQVTVSS” the “polyreactivity (PSR sort gate)” value was “high polyreactivity”.
With “QVQLVESGGGLVQAGGTLRLSGAASGSTFFFNAMGWYRQAPGKEWELVAAITGSGGSTYYADSVQGRFTISRDNAKNTVYLQMNSLKPEDTAVYYCAAYGAKPSEYYWGQGTQVTVSS” the “polyreactivity (PSR sort gate)” value was “low polyreactivity”.
In the case of “QVQLQESGGGLVQAGGSLRQSYAASGYIFPSLAMGWYRQAPGKEREFVAAIGRGSTNNYADSVKGRFTISRDNAKNTAYQQMNSLNPEDTAVYYCAAAASPLTRHLYWGQGTQVTVSS”, the “polyreactivity (PSR sort gate)” value is reported as “low polyreactivity”.
In the case of “QVQLVESGGGLVQAGGSLRLSCAASGFIFGYNAMGWYRQAPGKERELVAAISTRGGSTYYADSVKGRFTISRDNAKNTVYLQMNSLKPEDTAVYYCNKVTRVPFDSWGQGTQVTVSS”, the “polyreactivity (PSR sort gate)” value is reported as “high polyreactivity”.
For “QVQLVESGGGLVQAGGSLRLSCAASGFIFDDYAMGWYRQAPGKERELVAAISVSSTNYADSVKGRFTISRDNAKNTVYLQMNSLKPEDTAVYYCAADTYTYFLASYLYGQYDYWGQGTQVTVSS”, the “polyreactivity (PSR sort gate)” value was “low polyreactivity”.
With “QVQLVESGGGLVQAGGSLRISCAASGSIFEQYAMAWYRQAPGKERELVAAISKRGTSTYYAVSVKGRFTISRDNAKNTVYLQMNCLKPEDTAVYYCAATNRWYYRDAAAVYAFGYWGQGTQVTVSS” the “polyreactivity (PSR sort gate)” value was “high polyreactivity”.
In the case of “QVQLVESGGGLVQAGGSLGLSCAASGRSFRYYAMGWYIQAPGKERELVAAINWSGGSTYYADSVKGRFTISRDNAKNTVYLHMNRLKPEDTAVYYCNTRWYVGDDWGQGTQVTVSS”, the “polyreactivity (PSR sort gate)” value is reported as “high polyreactivity”.
For “QVQLVESAGRLVQAGGSLRLSCDASGSTFKGYPIGWYRQAPGKERELVAAISRRGGSTYYADSVKGRFTISRDNAKNTVYLQMNSLKPEDTAVYYCAKEGQLRYDYWGQGTQVTVSS”, the “polyreactivity (PSR sort gate)” value was “high polyreactivity”.
With “QVQLVESGGGLVQAGGSLRLSCAASGITFLYYAMGWYRQAPGKERELVAGISGTGGRTYYADSVKGRFTISRDNAKNTVYLQMNSLKPEDTAVYYCAARRTTWGYGYWGQGTQVTVSS” the “polyreactivity (PSR sort gate)” value was “high polyreactivity”.
With “QVQLVESGGGLVQAGGSLRLSCAASGRIFNRNAMVWSRQAPGKERELVASISSGGRTNYADSVKGRFTISRDNAKNTVYLQMNSLKPEDTAVYYCAAKSPRILLDYWGQGTQVTVSS” the “polyreactivity (PSR sort gate)” value was “low polyreactivity”.
In the case of “QVQLVESGGGLVQAGGSLRLSCAASGFTFAYNAMGWYRQAPGKERELVAAISSGGTRTYYADSVKGRFTISRDNAKYTVYLQLNSLNPEDTAVYYCASERVGWSGYRGDYLGQGTQVTVSS”, the “polyreactivity (PSR sort gate)” value is reported as “high polyreactivity”.
With “QVQLVESGGGLVQAGGSLRLSCAASGSIFYFNAMGWYRQAPGKEMELVATIRSGDGRTYYADSVKGRFTISRDNAKNTVYLQMNSLKPEDTAVYYCNASRVVYRQAYLYGYDYWGQGTQVTVSS” the “polyreactivity (PSR sort gate)” value was “low polyreactivity”.
For “QVQLVESGGGLVQAGGSLRLSCAASGGIFAANAMGWYRQAPGTERELVAAITSVGSTYADSVKGRFTISRDNAKNTVYLQMNSLKPEDTAVSYCAADTESVIVWYEDDYWGQGTQVTVSS”, the “polyreactivity (PSR sort gate)” value was “low polyreactivity”.
With “QVQHVESGGGLVQAGGSLRLSCAASGRIFRFNAMGWYRKAPGKERELVAAISWRSSNTYYADSVKGRFTISRDNAKNSVYLQMNSLKPEDTAVYYCAASTASSKYRYEYWGQGTQVTVSS” the “polyreactivity (PSR sort gate)” value was “high polyreactivity”.
With “QVQLVESGGGLVQAGGSLRLSCAASGRIFNWYAMGWYRQEPGKERELVAAISTDGSTYYADSVKGRFTISRDNAKNTVYLQMNSLKPEDTAVYYCAAVPGYTHLWGGPFDYWGQGTQVTVSS” the “polyreactivity (PSR sort gate)” value was “low polyreactivity”.
With “QVQLVESGGGLVQAGGSLRLSCAASGITIGYNAMGWYRQAPGKERELVATIRSGGSTYYADSVKGRFTISRDNAQKTVYLQMNSLKPEDTAVYYCNRDGYYYSTFDFDYWGQGTQVTVSS” the “polyreactivity (PSR sort gate)” value was “low polyreactivity”.
For “QVQLVESGGGLVQAGGSLRLSCAASGITFWRYAMGWYRQAPGKERELVAAINSGGGTKFADSVKGRFTISRDNAKNTVYLQMNSLKPEDTAVYYCAAKYVFTLHRYDYWGQGTQVTVSS”, the “polyreactivity (PSR sort gate)” value was “high polyreactivity”.
For “QVQLVESGGGLVQAGGSLRLICAASGRTFYYYAIGWYRQAPGKERELVASISYSAGRTYADSVKGRFTSSRDNAKNTVYLQMNSLKPEDTAVYYCNSDVTTVPYTNDYWGQGTQVTVSS”, the “polyreactivity (PSR sort gate)” value was “high polyreactivity”.
In the case of “QVQLVESGGGLVQAGGSLRLSCAASGRIFYTYAMGWYRQAPGKERELVAGISRGGRTYYADSVKGRFTISRDNAKNSVYLQMNSLKPEDTAVYYCAARLQYGIQYRYDYWGQGTQVTVSS”, the “polyreactivity (PSR sort gate)” value is reported as “high polyreactivity”.
With “QVQLVESGGGLVQAGGSLRLSCAASGSIFTVNAMGWYRQAPGKERELVARISWSGGSTYYADSVKGRFTISRDNAKNTVYLQMNSLKPEDTAVYYCAKGFYEGVPSYGYDYWGQGTQVTVSS” the “polyreactivity (PSR sort gate)” value was “low polyreactivity”.
In the case of “QVQLQESGGGPVLAGGSLRLSCAASGTIFVRLDMGWYRQAPGKEREFVATIGSGSSTYYADSVKGSFTISRDNVKNTVYLQMNSLKPEDTAVYYCAVSAAEQSRHYYWDQGTQVTVSS”, the “polyreactivity (PSR sort gate)” value is reported as “low polyreactivity”.
With “QVQLVESGGGLVQAGGSLRLSCEASGRIFGWYAMGWYRQAPGNERELVAALTNSGGSTYYADSVKGRFTISRDYEKNTVYFQMNRLKPEDTGVYFCAAESWIRRWYGGGKKYEYWGQGTQVTVSS” the “polyreactivity (PSR sort gate)” value was “high polyreactivity”.
In the case of “QVQLVESGGGLVQAGGSLRLSCAASGRIFVHNAMGWYSQARGKERELVAAINSGGSTNYADSVKGRFTISRDNANKTVYLQMNSLKPEDTAVYYCAAYWYPYPDAFEYYNYGYWGQGTQVTVSS”, the “polyreactivity (PSR sort gate)” value is reported as “high polyreactivity”.
For “QVQLQESGGGLEQAGGSLRLSCAASGYISHIGTMGWYRQAPGKEREFVATIVVGSTTNYADSVKRRFTISRDNAKNTVYLQPESGRYRGVLLRGWLLAVGKFTYWGQGTQETVSS”, the “polyreactivity (PSR sort gate)” value was “low polyreactivity”.
With “QVQLVESGGGLVQAGGSLRLSCAASGRTFRSNAMGWFRQAPGKERELVAAISRTGRTNYADSVKGRFTISRDNAKNTVYLQMNSLKPEDTAVYYCAARGYSVPWQERYDYWGQGTQVTVSS” the “polyreactivity (PSR sort gate)” value was “high polyreactivity”.
For “QVQLVESGVGLVQAGGSLRLSCAASGRTFSRNAMGWYRQSPGKERELVATISRGGGITFYADSVKGRFTISRDNAKNNVYLQMKSLKPEDTAVYYCNADVRYVGLRRIVDYWGLGTQVTVSS”, the “polyreactivity (PSR sort gate)” value was “high polyreactivity”.
For “QVQLVESGGGLVQAGGSHRLSCAASGSIFVVYAMGWYRQAPGKERELVASIRTGGSTNYADSVKGRFTISRDNAKNTVYLQMNSLKPEDTAVYYCAAASWNSNRHYYVARYYYWGQGTQVTVSS”, the “polyreactivity (PSR sort gate)” value was “high polyreactivity”.
With “QVQLVESGGGLVQAGGSLRLSCAASGSIFHVNARGRYRQAPGKERELVAGISDGGSTYYADSVKGRFTISRDNAKNTVYLQMNSLKPEDTGVYYCAAESEQWYSYVLSYDWEYDYWGQGTQVTVSS” the “polyreactivity (PSR sort gate)” value was “low polyreactivity”.
In the case of “QVQLVESGGGLVQAGGSLRLSCAASGITFRSYEMGWYRAAPAKERELVAAISSGGSRTYYADSVKGRYTISRDNAKKTVYLQMNSLKPEDTAVYYCAATDRSDVYKGAYYYWGQGTQVTVSS”, the “polyreactivity (PSR sort gate)” value is reported as “high polyreactivity”.
In the case of “QVQLVQSGGGLVQAGGSLRLSCAASGRTFYYAMGWYRQAPGKERELVARITRRGGSTYYADSVKGRFTISRDNAKNTVYLQMNSLKPEDTAVYYCNARWHRYLLATYGYWVQGTQVTVSS”, the “polyreactivity (PSR sort gate)” value is reported as “high polyreactivity”.
In the case of “QVQLVESGGGLVQAGGSLRLSCAASGITFGDYAMGWNRQAPGKERELVAGINWSGDGTYYADSVKGRFTISRDNAKITVYLQMYSLKPEDTAVYYCAAETFYDYGGYDYWGQVTQVTVSS”, the “polyreactivity (PSR sort gate)” value is reported as “low polyreactivity”.
For “QVQLVESGGGLVQAGGSLRLSSAASGRIFSIYAMGWYRQAPGKERELVAAITDRGGTTHYADSVKGRFTISRDYAKNTVYLQMNSLKPEDTAVYYCASDTYDYSSVEDFDYWGQGTQVTVSS”, the “polyreactivity (PSR sort gate)” value was “low polyreactivity”.
With “QVQLVESGGGLVQAGGSLRLSCAASGSTFNGYAMGWYRQAPGKERELVAAISSRSGRTYYADSVKGRFTISRDNAKNTVYLQMNSLKPEDTAVYYCAAYNGSRRQEFDYWGQGTQVTVSS” the “polyreactivity (PSR sort gate)” value was “high polyreactivity”.
In the case of “QVHLVESGGGLVQAGGSLRLSCAASGSTSAYYVMGWYRQAPGKERELVAAIDFSGDSTYYADSVKGRFTISRDNAKNTVYLQMNSLKPEDTAVYYCAAELFYYSSLVTYEYWGQGTQVTVSS”, the “polyreactivity (PSR sort gate)” value is reported as “high polyreactivity”.
For “QVQLVESGGGIVQAGGSLRVSCAASGRTFWGYAMGWYRQAPGKERELVAALNKSGGSTYYADSVKGRFTISRDNAKNTVYLQKNSLNPEDTAVYYCIAVYYWYKGDYWGQGTQVTVSS”, the “polyreactivity (PSR sort gate)” value was “high polyreactivity”.
In the case of “QVQLVESGGGLVQAGGSLRLSCAASGLTFVPNAMGWYRQAPGKERELFAAISNNGGRTYYADSVKGRFTISRDNAKNTVYLQMNSLKPEDTAVYYCANYLSPGERHSYDYWGQGTKVTVSS”, the “polyreactivity (PSR sort gate)” value is reported as “high polyreactivity”.
With “QVQLVESGGGIVQAGGSLRLSCAASGFTFNRNAMVWYRQAPGKERELVAAISWSGGSTYYADSVKGRFTISRYNAKNTVYLQMNSLKPEDTAVYYCAKGYRRVYGPFYYWGQGTQVTVSS” the “polyreactivity (PSR sort gate)” value was “low polyreactivity”.
With “QVQLVESGGGLVQAGGSLRLSRAASGSIFVSNAMGWYRQAPGKERELVAAIRGVDSTYYADSVKGRFTISRDNAKTTVYLQMNSLKPEDTAVYYCATRGPGYPRYYDWGQGTQVTVSS” the “polyreactivity (PSR sort gate)” value was “high polyreactivity”.
With “QVKLVESGGGLVQAGGILRLSCAASGLIFTTYAMGWYRQAPGKERELVAVISGCGSTSYADSVKGRFTISRDNAKNTVYLQMNSLKPEDTAVYYCAADKPVSQGPIPGYTNDYWGQGTQVTVSS” the “polyreactivity (PSR sort gate)” value was “low polyreactivity”.
With “QVQLVESGGGLDQAGGSLRLSCAASGSTSAYYVMGWYRQAPGKERELVAAIDFSGDSTYYADSVKGRFTISRDNAKNTVYLQMISLKPEDSAVYYCAAELFFYSSLVTYEYWGQGTQVTVSS” the “polyreactivity (PSR sort gate)” value was “high polyreactivity”.

Reference: the nanobody polyreactivity screen of Harvey et al. (2022)
